What all share (assay): cell-based or functional assay
For experiment [1], the target named is CD3 (on T cells of human PBMCs) (human).
In experiment [2] the target is human GLP-1R (human) (UniProt P43220).
Experiment [3] has as its target lactating receptors of the Nb2 cells (rat) (UniProt P05710).

Three substances from patent US20190184026A1 can be followed below.

Chain of lactating receptors of the Nb2 cells (rat) (P05710 20-610): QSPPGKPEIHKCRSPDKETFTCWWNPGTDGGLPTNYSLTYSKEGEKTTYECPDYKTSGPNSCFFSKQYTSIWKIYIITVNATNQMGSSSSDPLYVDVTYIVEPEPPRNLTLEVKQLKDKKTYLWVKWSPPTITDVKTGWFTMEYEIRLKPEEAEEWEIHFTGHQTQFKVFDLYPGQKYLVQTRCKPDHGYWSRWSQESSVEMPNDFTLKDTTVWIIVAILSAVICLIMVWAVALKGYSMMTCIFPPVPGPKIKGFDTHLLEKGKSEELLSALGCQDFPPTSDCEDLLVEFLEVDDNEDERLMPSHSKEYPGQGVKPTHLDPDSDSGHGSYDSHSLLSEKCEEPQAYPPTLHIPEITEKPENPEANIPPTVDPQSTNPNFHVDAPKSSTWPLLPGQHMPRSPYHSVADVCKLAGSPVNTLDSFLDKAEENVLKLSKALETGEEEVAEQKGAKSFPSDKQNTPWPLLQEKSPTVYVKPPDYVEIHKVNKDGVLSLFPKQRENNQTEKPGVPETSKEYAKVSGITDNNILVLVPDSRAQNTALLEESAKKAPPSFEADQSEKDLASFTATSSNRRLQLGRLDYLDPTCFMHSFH
Chain of human GLP-1R (human) (P43220 24-463): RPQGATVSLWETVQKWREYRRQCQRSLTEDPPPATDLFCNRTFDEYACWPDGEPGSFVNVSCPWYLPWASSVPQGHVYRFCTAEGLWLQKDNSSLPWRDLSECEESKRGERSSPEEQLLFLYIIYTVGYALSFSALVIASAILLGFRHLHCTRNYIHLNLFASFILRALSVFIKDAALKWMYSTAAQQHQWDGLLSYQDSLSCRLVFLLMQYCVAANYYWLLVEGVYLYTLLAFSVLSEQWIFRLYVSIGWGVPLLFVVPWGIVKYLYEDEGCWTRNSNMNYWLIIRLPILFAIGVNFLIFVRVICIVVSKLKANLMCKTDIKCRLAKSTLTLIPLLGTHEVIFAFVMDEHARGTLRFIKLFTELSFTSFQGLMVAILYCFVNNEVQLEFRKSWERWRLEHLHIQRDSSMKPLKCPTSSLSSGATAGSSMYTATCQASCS

In experiment [1], anti-CD3 monoclonal antibody OKT3 showed an EC50 of activation of human PBMCs (CCK-8, absorbance at 492 nM) of 0.015 nM.

Turning to “duraglutide (Eli Lilly, Cat. No. 9301897) (Fc fusion)”, the in vitro activity EC50 (CRE-Luc reporter, CHO-K1 cells with human GLP-1R) in experiment [2] worked out at 0.0299 nM.

In experiment [3], “hGH (from UniProt P01241 27-217) (ligand)” displayed an EC50 (Nb2 cell proliferation, CCK-8) of 0.00694 nM.
